Reference: PMC7083937, “The ribosome-associated complex RAC serves in a relay that directs nascent chains to Ssb” (Nature Communications, 2020)
No end group written: not given here. fluorescein = fluorescein (N-terminal label)

Columns and labels:
[1] = target: T1, ScSsz1-Zuo1NΔLP complex (ScSsz1 with ScZuo1NΔLP residues 10-50) (S. cerevisiae, UniProt P38788 1-538; P32527 10-50); assay: fluorescence polarisation; fluorescence anisotropy; two-fold serial dilutions of the protein complex mixed 1:1 with 40 nM fluorescein peptide; 20 mM Hepes/KOH pH 7.5, 200 mM KCl, 5 mM MgCl2, 1 mM DTT, 1 µM BSA; room temperature, 30 min; one-site binding fit; affinity called estimated; settings: both partners purified
T1 construct: Ssz1, S. cerevisiae; Zuo1, S. cerevisiae, residues 10-50, lacking the LP-motif (ScZuo1NΔLP); residues of the 3C site may be left on Zuo1NΔLP; not shown: His6-MBP, N-terminal, cleaved
T1 sequence (looked up) 1: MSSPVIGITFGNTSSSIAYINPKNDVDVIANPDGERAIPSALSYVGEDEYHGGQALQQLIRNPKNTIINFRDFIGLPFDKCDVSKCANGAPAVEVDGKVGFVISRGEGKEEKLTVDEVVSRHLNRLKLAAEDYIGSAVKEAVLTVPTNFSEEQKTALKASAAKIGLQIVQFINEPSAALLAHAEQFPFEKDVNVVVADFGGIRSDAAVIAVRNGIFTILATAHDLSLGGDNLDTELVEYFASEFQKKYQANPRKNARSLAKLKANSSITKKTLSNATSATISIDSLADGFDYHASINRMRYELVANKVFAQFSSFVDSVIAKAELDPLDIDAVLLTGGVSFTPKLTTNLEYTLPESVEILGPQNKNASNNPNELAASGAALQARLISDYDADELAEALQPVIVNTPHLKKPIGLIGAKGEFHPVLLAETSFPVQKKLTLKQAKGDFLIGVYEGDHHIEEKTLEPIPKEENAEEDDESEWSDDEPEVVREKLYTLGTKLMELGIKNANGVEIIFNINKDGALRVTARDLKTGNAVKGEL
T1 sequence (looked up) 2: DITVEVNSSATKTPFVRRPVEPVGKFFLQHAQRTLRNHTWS

[2] = target: T1, ScSsz1-Zuo1NΔLP complex (ScSsz1 with …); assay: nanoDSF; melting temperature of the complex with or without LP-peptide; 20 mM Hepes/KOH pH 7.5, 200 mM KCl, 5 mM MgCl2, 1 mM DTT; 20 to 90 °C at 1.5 °C/min; settings: both partners purified
[3] = nanoDSF thermal stability of RAC core complexes; format: physicochemical, Saccharomyces cerevisiae; settings: 20 mM Hepes/KOH pH 7.5, 200 mM KCl, 5 mM MgCl2, 1 mM DTT, 20 to 90 °C at 1.5 °C/min, 330/350 nm, no peptide, three measurements shown
Procedure: (§1) The melting temperature of ScSsz1-Zuo1N, ScSsz1-Zuo1NΔLP or ScSsz1mut-Zuo1NΔLP with or without the LP-peptide (Peptide Specialty Laboratories GmbH, Heidelberg) were determined using the Prometheus NT.48 nanoDSF system using nano-DSF grade capillaries (NanoTemper Technologies GmbH). The measurements were performed in 20 mM Hepes/KOH pH 7.5, 200 mM KCl, 5 mM MgCl2, 1 mM DTT. The LP-peptide, which was dissolved in DMSO, was pre-diluted in the above buffer such that the final DMSO concentration in the experiment was below 0.5%. DMSO diluted in the same way was added to the negative control. Intrinsic protein fluorescence was measured continuously at 330 nm and 350 nm with a temperature gradient ranging from 20 to 90 °C at a rate of 1.5 °C/min. […]
(§2) (a-b) NanoDSF analysis of Ssz1-Zuo1N (blue) and Ssz1-Zuo1NDLP (orange) in a and Ssz1-Zuo1NDLP wit hout t he LP-pept ide (orange) or wit h t he LP-pept ide (blue) in b. Three measurements are shown.
(§3) Source data are provided as a Source Dat a f ile.
(§4) (c) Residues (L439S/K440P/I448F/G495K) mutated in Ssz1mut to block substrate binding to Ssz1-SBDb (cyan) are in stick representation (upper panel). Zuo1N is shown in orange a nd the LP-motif in yellow. Multiple sequence alignment of Hsp70 homologs (lower panel) wit h the mutations highlighted in yellow. The alignment is colored as in Fig. 2a. […]

ScSsz1-Zuo1NΔLP = assay: nanoDSF melting temperature with/without LP-peptide; format: binding, Saccharomyces cerevisiae; settings: DMSO negative control (<0.5%), pH 7.5, 200 mM KCl, 20 to 90 °C at 1.5 °C/min, three measurements shown
Procedure: as §1, §2, §3, §4

B1: LP-peptide (MFSLPTL) labelled at the N terminus with fluorescein (peptide)
peptide: fluorescein-MFSLPTL
notes: LP-motif of Zuo1, S. cerevisiae, residues 1-7; source: synthetic peptide (Peptide Specialty Laboratories GmbH, Heidelberg)
With B1 the Kd [1] was 11.9 ± 4 µM.

B2: LP-peptide (MFSLPTL, ScZuo1 residues 1-7), free peptide (peptide)
peptide: MFSLPTL
notes: as for B1
B2: binds [2].

B3: RAC core complex: ScSsz1 with ScZuo1N (residues 1-50) (protein)
chain 1: MSSPVIGITFGNTSSSIAYINPKNDVDVIANPDGERAIPSALSYVGEDEYHGGQALQQLIRNPKNTIINFRDFIGLPFDKCDVSKCANGAPAVEVDGKVGFVISRGEGKEEKLTVDEVVSRHLNRLKLAAEDYIGSAVKEAVLTVPTNFSEEQKTALKASAAKIGLQIVQFINEPSAALLAHAEQFPFEKDVNVVVADFGGIRSDAAVIAVRNGIFTILATAHDLSLGGDNLDTELVEYFASEFQKKYQANPRKNARSLAKLKANSSITKKTLSNATSATISIDSLADGFDYHASINRMRYELVANKVFAQFSSFVDSVIAKAELDPLDIDAVLLTGGVSFTPKLTTNLEYTLPESVEILGPQNKNASNNPNELAASGAALQARLISDYDADELAEALQPVIVNTPHLKKPIGLIGAKGEFHPVLLAETSFPVQKKLTLKQAKGDFLIGVYEGDHHIEEKTLEPIPKEENAEEDDESEWSDDEPEVVREKLYTLGTKLMELGIKNANGVEIIFNINKDGALRVTARDLKTGNAVKGEL
chain 2: MFSLPTLTSDITVEVNSSATKTPFVRRPVEPVGKFFLQHAQRTLRNHTWS
modifications: left off: His6-SUMO, N-terminal, state not stated | His6-MBP, N-terminal, cleaved
For B3, the “melting temperature (thermal stability of RAC core complex)” value [3] was 52.9 °C.

B4: Ssz1-Zuo1NΔLP: ScSsz1 with ScZuo1NΔLP (residues 10-50) lacking the LP-motif (protein)
chain 1: MSSPVIGITFGNTSSSIAYINPKNDVDVIANPDGERAIPSALSYVGEDEYHGGQALQQLIRNPKNTIINFRDFIGLPFDKCDVSKCANGAPAVEVDGKVGFVISRGEGKEEKLTVDEVVSRHLNRLKLAAEDYIGSAVKEAVLTVPTNFSEEQKTALKASAAKIGLQIVQFINEPSAALLAHAEQFPFEKDVNVVVADFGGIRSDAAVIAVRNGIFTILATAHDLSLGGDNLDTELVEYFASEFQKKYQANPRKNARSLAKLKANSSITKKTLSNATSATISIDSLADGFDYHASINRMRYELVANKVFAQFSSFVDSVIAKAELDPLDIDAVLLTGGVSFTPKLTTNLEYTLPESVEILGPQNKNASNNPNELAASGAALQARLISDYDADELAEALQPVIVNTPHLKKPIGLIGAKGEFHPVLLAETSFPVQKKLTLKQAKGDFLIGVYEGDHHIEEKTLEPIPKEENAEEDDESEWSDDEPEVVREKLYTLGTKLMELGIKNANGVEIIFNINKDGALRVTARDLKTGNAVKGEL
chain 2: DITVEVNSSATKTPFVRRPVEPVGKFFLQHAQRTLRNHTWS
modifications: left off: His6-SUMO, N-terminal, state not stated | His6-MBP, N-terminal, cleaved
notes: ScSsz1 with ScZuo1NΔLP (residues 10-50) lacking the LP-motif
For B4, the “melting temperature (thermal stability of RAC core complex)” value [3] was 39.7 °C and the “melting temperature of Ssz1-Zuo1NΔLP without LP-peptide” value (ScSsz1-Zuo1NΔLP) was 40.3 °C.
